Results published in patent US20200247894A1 (Regeneron, published 2020).

How the values were obtained:
[1] = biological target: T1, Rat IL2Rγ extracellular domain expressed with a C-terminal myc-myc-hexahistidine tag (rat); test: SPR Biacore 4000, anti-hFc-captured mAb, 25 C
T1 construct: whole entry is the tagged construct; also called rIL-2Rg-MMH; rat IL-2Rg-MMH
T1 chain: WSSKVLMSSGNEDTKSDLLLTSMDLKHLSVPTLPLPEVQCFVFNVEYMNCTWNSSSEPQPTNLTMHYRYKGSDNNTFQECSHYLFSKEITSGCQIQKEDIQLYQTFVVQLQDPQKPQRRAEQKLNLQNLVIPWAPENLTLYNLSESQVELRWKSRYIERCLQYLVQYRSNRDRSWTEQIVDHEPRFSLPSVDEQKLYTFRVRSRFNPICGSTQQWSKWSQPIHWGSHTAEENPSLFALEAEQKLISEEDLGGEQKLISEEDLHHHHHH
Summary of the method: (§1)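 KD and dissociative half-life come from rate constants obtained by 1:1 binding-model fits of real-time sensorgrams. Antibodies sit on an anti-human Fc capture surface, with HBS-ET (pH 7.4) as running buffer and an 8-10 minute dissociation phase.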

[2] = biological target: T2, Mouse IL2Rγ extracellular domain expressed with a C-terminal myc-myc-hexahistidine tag (mouse); test: SPR Biacore 4000, anti-hFc-captured mAb, 25 C
T2 construct: whole entry is the tagged construct; also called mIL-2Rg-MMH
T2 chain: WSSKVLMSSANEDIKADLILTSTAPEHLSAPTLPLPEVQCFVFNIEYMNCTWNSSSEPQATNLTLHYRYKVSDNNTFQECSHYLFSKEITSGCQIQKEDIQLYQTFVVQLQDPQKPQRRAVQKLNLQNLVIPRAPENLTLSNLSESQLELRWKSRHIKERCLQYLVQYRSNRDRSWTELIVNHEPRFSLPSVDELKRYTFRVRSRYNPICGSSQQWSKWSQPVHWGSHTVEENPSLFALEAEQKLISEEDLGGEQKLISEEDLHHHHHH
Summary of the method: as §1

[3] = biological target: T3, Human IL2Rγ extracellular domain expressed with a C-terminal mouse IgG2a Fc tag (human); test: SPR Biacore 4000, anti-hFc-captured mAb, 25 C
T3 construct: whole entry is the Fc-fused construct; also called hIL-2Rg-mFc
T3 chain: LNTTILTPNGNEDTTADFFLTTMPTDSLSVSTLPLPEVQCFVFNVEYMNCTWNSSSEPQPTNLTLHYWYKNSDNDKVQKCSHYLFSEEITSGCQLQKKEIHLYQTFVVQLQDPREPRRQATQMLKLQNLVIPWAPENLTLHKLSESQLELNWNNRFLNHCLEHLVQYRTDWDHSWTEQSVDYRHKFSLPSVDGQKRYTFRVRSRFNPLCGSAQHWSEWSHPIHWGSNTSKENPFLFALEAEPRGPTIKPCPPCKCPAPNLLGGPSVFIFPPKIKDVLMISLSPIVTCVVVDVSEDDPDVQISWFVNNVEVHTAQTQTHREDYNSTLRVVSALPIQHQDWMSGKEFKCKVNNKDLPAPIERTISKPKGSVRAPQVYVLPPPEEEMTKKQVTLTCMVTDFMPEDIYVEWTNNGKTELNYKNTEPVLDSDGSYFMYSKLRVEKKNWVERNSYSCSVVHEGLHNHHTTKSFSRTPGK
Summary of the method: as §1

[4] = biological target: T3, Human IL2Rγ extracellular domain …; test: SPR Biacore 4000, anti-hFc-captured mAb, 37 C; computed with kd fixed at 1.00E-05
Protocol: (§2) Equilibrium dissociation constants (KD values) for IL-2Rγ binding to purified anti-IL2Rγ monoclonal antibodies were determined using a Biacore 4000 instrument equipped with a real-time surface plasmon resonance biosensor. All binding studies were performed in 10 mM HEPES, 150 mM NaCl, 3 mM EDTA, and 0.05% v/v Surfactant Tween-20, pH 7.4 (HBS-ET) running buffer at 25° C. and 37° C. The Biacore sensor surface was first derivatized by amine coupling with a monoclonal mouse anti-human Fc antibody (GE, # BR-1008-39) to capture anti-IL2Rγ monoclonal antibodies.
(§3) The dissociation of monoclonal antibody bound IL2Rγ reagents were monitored for 8-10 minutes in HBS-ET running buffer. Kinetic association (kₐ) and dissociation (kd) rate constants were determined by fitting the real-time sensorgrams to a 1:1 binding model using Scrubber 2.0c curve fitting software. Binding dissociation equilibrium constants (KD) and dissociative half-lives (t_{1/2}) were calculated from the kinetic rate constants as: […]

[5] = biological target: T3, Human IL2Rγ extracellular domain …; test: SPR Biacore 4000, anti-hFc-captured mAb, 25 C; computed with kd fixed at 1.00E-05
Protocol: as §2, §3

[6] = biological target: T1, Rat IL2Rγ extracellular domain …; test: SPR Biacore 4000, anti-hFc-captured mAb, 37 C
Summary of the method: as §1

[7] = biological target: T4, Macaca fascicularis IL2Rγ extracellular domain expressed with a C-terminal myc-myc-hexahistidine tag (Macaca fascicularis); test: SPR Biacore 4000, anti-hFc-captured mAb, 37 C
T4 construct: whole entry is the tagged construct; also called mfIL-2Rg-MMH
T4 chain: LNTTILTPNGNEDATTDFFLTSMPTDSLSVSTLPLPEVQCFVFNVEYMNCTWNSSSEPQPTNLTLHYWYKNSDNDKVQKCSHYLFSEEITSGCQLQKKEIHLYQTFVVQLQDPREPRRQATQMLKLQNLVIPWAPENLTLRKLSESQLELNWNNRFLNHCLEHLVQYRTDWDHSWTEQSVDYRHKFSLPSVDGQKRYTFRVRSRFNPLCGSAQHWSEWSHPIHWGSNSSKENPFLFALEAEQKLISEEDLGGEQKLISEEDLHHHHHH
Summary of the method: as §1

[8] = biological target: T2, Mouse IL2Rγ extracellular domain …; test: SPR Biacore 4000, anti-hFc-captured mAb, 37 C
Summary of the method: as §1

[9] = biological target: T3, Human IL2Rγ extracellular domain …; test: SPR Biacore 4000, anti-hFc-captured mAb, 37 C
Summary of the method: as §1

[10] = biological target: T3, Human IL2Rγ extracellular domain …; test: SPR Biacore 4000, anti-hFc-captured mAb, 37 C; no dissociation observed, kd manually fixed at 1.00E-05
[11] = biological target: T3, Human IL2Rγ extracellular domain …; test: SPR Biacore 4000, anti-hFc-captured mAb, 25 C; no dissociation observed, kd manually fixed at 1.00E-05
[12] = biological target: T5, human IL-2Rγ expressed on cells (human, UniProt P31785 23-369); test: flow cytometry on NK-92 cells, antibody at 10 µg/ml, MFI of sample over MFI of unstained; upper end, tied to H4H12889P by Table 9-1
T5 construct: whole, on cells; on cells it stands together with the cytokine-specific receptor subunits; also called IL-2Rgamma; CD132
T5 sequence (looked up): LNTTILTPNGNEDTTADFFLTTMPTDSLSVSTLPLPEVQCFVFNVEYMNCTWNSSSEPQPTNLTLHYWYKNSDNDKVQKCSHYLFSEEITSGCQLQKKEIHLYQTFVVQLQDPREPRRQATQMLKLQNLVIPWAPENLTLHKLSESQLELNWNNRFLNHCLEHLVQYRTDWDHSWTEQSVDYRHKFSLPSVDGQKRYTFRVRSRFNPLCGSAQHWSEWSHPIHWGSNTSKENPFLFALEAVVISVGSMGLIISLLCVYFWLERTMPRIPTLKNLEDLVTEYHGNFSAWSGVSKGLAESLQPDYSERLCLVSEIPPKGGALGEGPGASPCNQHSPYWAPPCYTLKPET
Protocol: (§4) For flow cytometry analyses, the cells were pre-incubated with mouse IgG at 100 μg/ml for 15 minutes at room temperature (RT) to block the binding of the antibodies to Fc receptors. […] Cells were washed, fixed using BD CytoFix™ (BD biosciences, #554655) and analyzed on an IQue® (Intellicyt®) Flow Cytometer or Accuri Flow cytometer (BD). […] The results were analyzed using ForeCyt® (IntelliCyt®) software to determine the geometric means of fluorescence (MFI) for viable cells. Binding ratios were calculated by normalizing the MFI of the test sample by the MFI of the unstained sample.

[13] = biological target: T5, human IL-2Rγ expressed on cells; test: flow cytometry on Jurkat cells, antibody at 10 µg/ml, MFI of sample over MFI of unstained; upper end, tied to H4H12889P by Table 9-1
Protocol: as §4

[14] = biological target: T5, human IL-2Rγ expressed on cells; test: flow cytometry on NK-92 cells, antibody at 10 µg/ml, MFI of sample over MFI of unstained; lower end, tied to H4H12859P by Table 9-1
Protocol: as §4

[15] = biological target: T5, human IL-2Rγ expressed on cells; test: flow cytometry on NK-92 cells, antibody at 10 µg/ml, MFI of sample over MFI of unstained; lower end, tied to H4H13538P by Table 9-2
Protocol: as §4

[16] = biological target: T5, human IL-2Rγ expressed on cells; test: flow cytometry on NK-92 cells, antibody at 10 µg/ml, MFI of sample over MFI of unstained; upper end, tied by Table 9-2 to the row printed H4H13841P

B1: H4H12908P (antibody, human IgG4 S228P, kappa, V domains shown)
VH: EVQLVESGGRLVQPGGSLRLSCEASGFTFSNYGMTWVRQAPGKGLEWVSVISGSDNRKYYAESVKGRFTISRDNSKNTLYLQMNSLRAEDTAVYYCAKLGYSRSSKDFYYGMDVWGQGTTVTVSS
VL: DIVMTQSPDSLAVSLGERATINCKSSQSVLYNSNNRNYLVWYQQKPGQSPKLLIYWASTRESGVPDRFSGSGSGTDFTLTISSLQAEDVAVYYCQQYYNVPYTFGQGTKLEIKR
notes: fully human anti-IL2Rgamma mAb, human IgG4 Fc
Q: What does the source list for B1?
A: 100 nM Ag Bound [1]: 19 RU; Kd [1]: 79.3 nM; koff [1]: 0.00237 s⁻¹; kon [1]: 29800 M⁻¹ s⁻¹; t1/2 [1]: 5 min; 100 nM Ag Bound [2]: 25 RU; Kd [2]: 108 nM; koff [2]: 0.00367 s⁻¹; kon [2]: 34100 M⁻¹ s⁻¹; t1/2 [2]: 3.1 min; 50 nM Ag Bound [3]: 11 RU; kon [3]: 76200 M⁻¹ s⁻¹; Kd [4]: ≤ 0.518 nM; t1/2 [4]: ≥ 1160 min; Kd [5]: ≤ 0.131 nM; t1/2 [5]: ≥ 1160 min; 100 nM Ag Bound [6]: 8 RU; Kd [6]: 215 nM; koff [6]: 0.00835 s⁻¹; kon [6]: 38900 M⁻¹ s⁻¹; t1/2 [6]: 1.4 min; 100 nM Ag Bound [7]: 13 RU; Kd [7]: 39.8 nM; koff [7]: 0.00148 s⁻¹; kon [7]: 37100 M⁻¹ s⁻¹; t1/2 [7]: 8 min; 100 nM Ag Bound [8]: 6 RU; Kd [8]: 387 nM; koff [8]: 0.0293 s⁻¹; kon [8]: 75700 M⁻¹ s⁻¹; t1/2 [8]: 0.4 min; 50 nM Ag Bound [9]: 8 RU; kon [9]: 19300 M⁻¹ s⁻¹; koff [10]: ≤ 1e-05 s⁻¹; koff [11]: ≤ 1e-05 s⁻¹

B2: H4H12889P (antibody, human IgG4 S228P, kappa, V domains shown)
VH: EVQLVESGGGLVQPGGSLRLSCAASGFIFSSYEMHWVRQAPGKGLEWISYISSSGTTIYYADSVKGRFTISRDNAKNSLYLHMNSLRAEDTAVYYCTRARITGTFDVFDIWGQGTMVTVSS
VL: DIQMTQSPSSLSASVGDRVTITCRASQSISSYLNWYQQKPGKAPKLLIFAASNLQSGVPSRFSGSRSGTDFTLTISSLQPEDFATYYCQQNYNIPYTFGQGTKLEIKR
notes: fully human anti-IL2Rγ antibody, human IgG4; also called REGN7257
Q: B2 was tested. Which binding ratio [12] did it give?
A: The binding ratio was 94.

Q: And the binding ratio [13]?
A: The binding ratio was 19.

B3: H4H12859P (antibody, human IgG4 S228P, kappa, V domains shown)
VH: QVQLVQSGAEVKKPGASVRVSCKASGYTFTDYDIHWVRQAPGHGLEWMGWINPNSGGTNYAQKFQGRVTMTRDTSISTVYMDLSRLRSDDTAVYYCARADYSSSYYYYGMDVWGQGTTVTVSS
VL: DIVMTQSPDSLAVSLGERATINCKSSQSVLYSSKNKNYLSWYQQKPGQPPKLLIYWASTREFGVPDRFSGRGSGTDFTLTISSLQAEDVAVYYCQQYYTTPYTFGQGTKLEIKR
notes: fully human anti-IL2Rγ antibody, human IgG4
Q: With B3 as the binder, how does the binding ratio [14] read?
A: The binding ratio was 1.

B4: H4H13538P (antibody, human IgG4 S228P, kappa, V domains shown)
VH: EVQLVESGGGLVQPGGSLGLSCAASGFTFSNYAMSWVRQAPGKGLEWVSAVSGGGGGTYYADSVKGRFTISRDNSKNTVLLQMNSLRAEDTAVYYCARGRTGGLDYWGPGTLVTVSS
VL: DVVMTQSPLSLPVIFGQPASISCRSSQSLVDSDGNTYLNWLQQRPGQSPRRLIYEVSNRDSGVPDRFSGSGSGTDFTLTISRVEAEDVGIYYCMQGTRWPPTFGGGTKVEIKR
notes: as for B3
Q: Which binding ratio [15] does the source give for B4 here?
A: Its binding ratio is 1.

B5: H4H13541P (antibody, human IgG4 S228P, kappa, V domains shown)
VH: EVQLVESGGGVVRPGGSLRLSCAASGFIFDDYDMSWVRQPPGRGLEWVSGIDWFGGTRGYADSMKGRFTISRDNAKNSLYLQMNSLRVEDTAFYYCARGGAIVGAVTPFDYWGQGTLVTVSS
VL: DIQMTQSPSSLSASVGNRVTLSCRASQSINTYLSWYQQRPGKAPKLLIYAASSLQSGVPSRFSGSGAGTDFTLTISSLQPEDFATYYCQQSYSAPLTFGGGTKVEIKR
notes: as for B3
Q: For B5, which binding ratio [16] is on record?
A: Its binding ratio is 37.
